The target in experiment [1] is myosin 5 heavy meromyosin (HMM) (UniProt Q99104). Description: inhibition of actin-activated MgATPase.
Experiment [2] shares this target. The experiment can be described thus: inhibition of actin-activated MgATPase. This is another data set of the same source.

Like-named read-outs stand apart in the source and are kept apart here.

In general, Ki refers to the dissociation constant of the complex between target and ligand, obtained from inhibition or displacement. Read a high Ki as weaker binding. For “glutathione S-transferase (GST)-47 kDa GTD fusion protein, dimer (from UniProt Q99104 1-1853) (domain or fragment)”, the Ki in experiment [1] stood at 750 nM; in experiment [2], 530 nM.

(Values after paper PMC1852638.)
